Results published in patent US20200148774A1 (Genentech, published 2020).
“And” between values parts separate entries of the source, which are not always exact repeats. Equal entries are not always repeated. Where two headings read alike, the source gives them in different places. Blank lines part the entries; values can stand above or below the binder they belong to.

Columns and labels:
[1] = target: T1, cynomolgus CLL-1 on cells (recombinant on HEK293AD cells) (cynomolgus monkey); test: FACS, stable cell line expressing recombinant cyno CLL-1
T1 construct: also called 293AD/cynoCLL-1; 293AD/cynoCLL1
T1 chain: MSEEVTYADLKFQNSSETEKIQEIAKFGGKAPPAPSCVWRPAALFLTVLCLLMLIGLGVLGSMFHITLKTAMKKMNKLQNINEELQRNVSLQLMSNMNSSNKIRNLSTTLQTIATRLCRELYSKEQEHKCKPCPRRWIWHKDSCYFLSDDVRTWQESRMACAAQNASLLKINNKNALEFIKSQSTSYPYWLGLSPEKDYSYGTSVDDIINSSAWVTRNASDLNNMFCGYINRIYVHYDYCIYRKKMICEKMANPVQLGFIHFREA

[2] = target: T2, human CLL-1 on cells (endogenous on HL-60, EOL-1 and other AML cell lines and CD14+ monocytes); recombinant on … (human, UniProt Q5QGZ9 1-265); test: FACS, stable cell line expressing recombinant hu CLL-1 and AML tumor cell lines
T2 construct: also called 293AD/huCLL-1; tumor-derived CLL-1
T2 sequence: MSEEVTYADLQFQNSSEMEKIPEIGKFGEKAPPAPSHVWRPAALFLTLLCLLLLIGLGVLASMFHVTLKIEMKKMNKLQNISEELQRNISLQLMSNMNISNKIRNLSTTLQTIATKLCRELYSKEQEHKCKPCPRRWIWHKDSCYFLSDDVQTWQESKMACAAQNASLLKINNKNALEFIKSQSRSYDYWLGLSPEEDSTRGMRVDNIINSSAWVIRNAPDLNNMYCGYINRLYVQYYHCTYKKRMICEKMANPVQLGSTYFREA

[3] = target: T2, human CLL-1 on cells (endogenous on …); test: Scatchard, EOL-1 cells
[4] = target: T2, human CLL-1 on cells (endogenous on …); test: Scatchard, HL-60 cells
Experimental: (§1) Competition assay mixtures of 50 μL volume containing a fixed concentration of [1¹²⁵] labeled antibody and decreasing concentrations of serially diluted, unlabeled antibody were placed into 96-well plates. HEK293AD cells stably expressing recombinant hu or cynoCLL-1 or HL-60 tumor cells expressing endogenous CLL-1 were cultured in growth media at 37° C. in 5% CO₂. Cells were detached from the flask using Sigma Cell Dissociation Solution and were washed with binding buffer, which consisted of Dulbecco's Modified Eagle Medium (DMEM) with 1% bovine serum albumin (BSA), […] and 0.1% sodium azide. The washed cells were added to the 96 well plates at a density of 100,000 cells in 0.2 mL of binding buffer. […] The final concentration of the unlabeled antibody in the competition assay ranged from 1000 nM through ten 2-fold dilution steps to a 0 nM buffer-only assay. Competition assays were carried out in triplicate. Competition assays were incubated for 2 hours at room temperature. […] The filters were counted on a Wallac Wizard 1470 gamma counter (PerkinElmer Life and Analytical Sciences Inc.; Wellesley, Mass.). The binding data was evaluated using NewLigand software (Genentech), which uses the fitting algorithm of Munson and Robard to determine the binding affinity of the antibody (Munson and Robard 1980).

[5] = target: T2, human CLL-1 on cells (endogenous on …); test: Scatchard, 293AD/huCLL-1 cells
Experimental: Competition assay mixtures of 50 μL volume containing a fixed concentration of [1¹²⁵] labeled antibody and decreasing concentrations of serially diluted, unlabeled antibody were placed into 96-well plates. HEK293AD cells stably expressing recombinant hu or cynoCLL-1 or HL-60 tumor cells expressing endogenous CLL-1 were cultured in growth media at 37° C. in 5% CO₂. Cells were detached from the flask using Sigma Cell Dissociation Solution and were washed with binding buffer, which consisted of Dulbecco's Modified Eagle Medium (DMEM) with 1% bovine serum albumin (BSA), […] and 0.1% sodium azide. The washed cells were added to the 96 well plates at a density of 100,000 cells in 0.2 mL of binding buffer. […] The final concentration of the unlabeled antibody in the competition assay ranged from 1000 nM through ten 2-fold dilution steps to a 0 nM buffer-only assay. Competition assays were carried out in triplicate. Competition assays were incubated for 2 hours at room temperature. After the 2-hour incubation, the competition assays were transferred to a Millipore Multiscreen filter plate (Billerica, Mass.) and washed 4 times with binding buffer to separate the free from bound [I¹²⁵] labeled antibody. The filters were counted on a Wallac Wizard 1470 gamma counter (PerkinElmer Life and Analytical Sciences Inc.; Wellesley, Mass.). The binding data was evaluated using NewLigand software (Genentech), which uses the fitting algorithm of Munson and Robard to determine the binding affinity of the antibody (Munson and Robard 1980).

[6] = target: T3, recombinant human CLL-1 extracellular domain (ECD, amino acids 65-265) fused to an N-terminal Flag (human, UniProt Q5QGZ9 65-265); test: SPR (Biacore T200), IgG captured by anti-human Fc, CLL-1 as analyte
T3 construct: The construct and the K244Q SNP are stated for the immunogen; they are not written as a piece; also called huCLL-1-Flag; huCLL-1
T3 chain: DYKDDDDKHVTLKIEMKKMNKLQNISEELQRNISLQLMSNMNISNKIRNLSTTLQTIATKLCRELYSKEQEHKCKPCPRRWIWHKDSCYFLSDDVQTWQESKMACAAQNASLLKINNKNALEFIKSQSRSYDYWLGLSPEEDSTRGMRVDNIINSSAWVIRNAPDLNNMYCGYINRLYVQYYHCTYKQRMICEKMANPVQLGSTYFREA

[7] = target: T4, recombinant cynomolgus CLL-1 extracellular domain (ECD, amino acids 65-265) fused to an N-terminal Flag (cynomolgus monkey); test: as above
T4 construct: Construct stated for the immunogen; also called CynoCLL-1 Flag; cynoCLL-1
T4 chain: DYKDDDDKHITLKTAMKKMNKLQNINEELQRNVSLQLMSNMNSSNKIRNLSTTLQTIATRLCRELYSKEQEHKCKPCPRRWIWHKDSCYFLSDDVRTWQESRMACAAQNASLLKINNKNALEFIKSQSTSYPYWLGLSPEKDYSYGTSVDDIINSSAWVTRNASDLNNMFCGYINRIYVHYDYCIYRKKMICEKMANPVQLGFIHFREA

[8] = target: T3, recombinant human CLL-1 extracellular …; test: as above
[9] = target: T4, recombinant cynomolgus CLL-1 …; test: as above
[10] = target: T3, recombinant human CLL-1 extracellular …; test: affinity column of the TDB summary table (rounded Biacore KD of the second the 8th table / the 4th table tables)
[11] = target: T4, recombinant cynomolgus CLL-1 …; test: as above
[12] = target: T1, cynomolgus CLL-1 on cells (recombinant …); test: Scatchard, 293AD/cynoCLL1 cells
Experimental: as §1

[13] = target: T3, recombinant human CLL-1 extracellular …; test: SPR (Biacore T200), IgG captured by anti-human Fc, human CLL-1 as analyte
Experimental: The binding affinity of the antibodies in this section was determined by BIAcore™ T200 Format. Briefly, BIAcore™ research grade CM5 chips were activated with 1-ethyl-3-(3-dimethylaminopropyl) carbodiimide (EDC) and N-hydroxysuccinimide (NHS) reagents according to the supplier's instructions. Goat anti-human Fc IgGs were coupled to the chips to achieve approximately 10,000 response units (RU) in each flow cell. Unreacted coupling groups were blocked with 1M ethanolamine. For kinetics measurements, antibodies were captured to achieve approximately 300 RU. Three-fold serial dilutions of human CLL-1 was injected in HBS-P buffer (0.01M HEPES pH7.4, 0.15M NaCl, 0.005% surfactant P20) at 25° C. with a flow rate of 30 μl/min. Association rates (kon) and dissociation rates (koff) were calculated using a 1:1 Langmuir binding model (BIAcore™ T200 Evaluation Software version 2.0). The equilibrium dissociation constant (Kd) was calculated as the ratio koff/kon.

[14] = target: T5, hCD3εγ (human, UniProt P07766 23-126; P09693 23-116); test: SPR (Biacore)
T5 construct: also called human CD3εγ
T5 sequence (P07766 23-126, chain 1 of 2): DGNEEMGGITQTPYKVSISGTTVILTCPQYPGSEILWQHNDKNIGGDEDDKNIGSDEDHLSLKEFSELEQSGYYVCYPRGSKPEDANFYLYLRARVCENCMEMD
T5 sequence (P09693 23-116, chain 2 of 2): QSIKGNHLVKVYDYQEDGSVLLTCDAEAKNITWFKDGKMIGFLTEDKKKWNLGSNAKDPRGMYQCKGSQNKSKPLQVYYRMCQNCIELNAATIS

[15] = target: T6, cynoCD3εγ (cynomolgus monkey, UniProt Q95LI5 22-117; Q95LI7 23-113); test: SPR (Biacore)
T6 construct: also called cynomolgus CD3εγ
T6 sequence (looked up) 1: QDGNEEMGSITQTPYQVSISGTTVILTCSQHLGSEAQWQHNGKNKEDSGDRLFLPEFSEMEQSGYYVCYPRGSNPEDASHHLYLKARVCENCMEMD
T6 sequence (looked up) 2: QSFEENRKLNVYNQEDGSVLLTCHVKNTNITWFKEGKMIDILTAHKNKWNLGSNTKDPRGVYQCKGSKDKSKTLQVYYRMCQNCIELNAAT

binding result [1]: binds | binding result [2]: binds
B1: m20B1 (antibody, V domains shown)
VH: EVQLQQSGPELVKPGALVKISCKASGYTFTSYDINWLKQRPGQGLEWIGWIYPGDGTTEYNERFKGKATLTADKSSSTAYLQLSSLTSENSAVYFCARSYDYDYAMDYWGQGTSVTVSS
VL: DIVLTQSPAIMSASPGEKVTMTCSASSSISYMYWYQQKPGTSPKRWIYDTSKLASGVPARFSGSGSGTSYSLTISSMEAEDAATYYCHQRSSWTFGGGTKLEIK
notes: murine monoclonal antibody; also called murine 20B1

Kd [3]: 0.74 nM | Kd [5]: 3.6 nM | Kd [12]: 2.4 nM | Kd [6]: 11.7 nM | Kd [7]: 9.47 nM | Kd [8]: 15.1 nM | Kd [9]: 9.3 nM | Kd [13]: 9.79 nM
B5: 21C9.L2H3 (antibody, V domains shown)
VH: EVQLVQSGAEVKKPGASVKVSCKASGYTFTDYYLDWVRQAPGQGLEWIGRVNPYNGGTIYNQKFKGRVTLTRDTSTSTAYLELSSLRSEDTAVYYCARDHYRYDPLLDYWGQGTLVTVSS
VL: DIQMTQSPSSLSASVGDRVTITCKASQDVSTAVAWFQQKPGKAPKLLIYSPSYRYTGVPSRFSGSGSGTDFTLTISSLQPEDFATYYCQQLYSTPYTFGQGTKVEIK
notes: humanized, assessed in the form of an IgG; also called humanized 21C9.L2H3; h21C9

Kd [14]: 0.5 nM | Kd [15]: 0.7 nM
B6: 38E4v1 (antibody, V domains shown)
VH: EVQLVQSGAEVKKPGASVKVSCKASGFTFTSYYIHWVRQAPGQGLEWIGWIYPENDNTKYNEKFKDRVTITADTSTSTAYLELSSLRSEDTAVYYCARDGYSRYYFDYWGQGTLVTVSS
VL: DIVMTQSPDSLAVSLGERATINCKSSQSLLNSRTRKNYLAWYQQKPGQSPKLLIYWTSTRKSGVPDRFSGSGSGTDFTLTISSLQAEDVAVYYCKQSFILRTFGQGTKVEIK
notes: also called h38E4v1

Continued, binder first:

B2: 6E7.L4H1e (antibody, V domains shown)
VH: EVQLVQSGAEVKKPGASVKVSCKASGYSFTDYYMHWVRQAPGQGLEWIGRINPYNGAAFYSQNFKDRVTLTVDTSTSTAYLELSSLRSEDTAVYYCAIERGADLEGYAMDYWGQGTLVTVSS
VL: DIQMTQSPSSLSASVGDRVTITCRASQSVSTSSYNYMHWYQQKPGKPPKLLIKYASNLESGVPSRFSGSGSGTDFTLTISSLQPEDFATYYCQHSWEIPLTFGQGTKVEIK
notes: humanized, assessed in the form of an IgG; also called humanized 6E7.L4H1e; h6E7
Kd [3]: 0.25 nM and 0.29 nM | Kd [4]: 0.6 nM and 0.34 nM | Kd [5]: 0.68 nM and 0.35 nM | Kd [6]: 0.622 nM | koff [6]: 0.000512 s⁻¹ | kon [6]: 824000 M⁻¹ s⁻¹ | Kd [7]: 0.317 nM | koff [7]: 0.000234 s⁻¹ | kon [7]: 739000 M⁻¹ s⁻¹ | Kd [8]: 1.08 nM | koff [8]: 0.000984 s⁻¹ | kon [8]: 910000 M⁻¹ s⁻¹ | Kd [9]: 2.26 nM | koff [9]: 0.00181 s⁻¹ | kon [9]: 804000 M⁻¹ s⁻¹ | Kd [10]: 1.1 nM | Kd [11]: 2.2 nM

B3: 6E7.L4H1eA54 (antibody, V domains shown)
VH: EVQLVQSGAEVKKPGASVKVSCKASGYSFTDYYMHWVRQAPGQGLEWIGRINPYAGAAFYSQNFKDRVTLTVDTSTSTAYLELSSLRSEDTAVYYCAIERGADLEGYAMDYWGQGTLVTVSS
VL: DIQMTQSPSSLSASVGDRVTITCRASQSVSTSSYNYMHWYQQKPGKPPKLLIKYASNLESGVPSRFSGSGSGTDFTLTISSLQPEDFATYYCQHSWEIPLTFGQGTKVEIK
notes: humanized IgG; also called 6E7.L4H1eN54A; h6E7A
Kd [3]: 0.32 nM | Kd [4]: 0.64 nM | Kd [5]: 0.89 nM | Kd [12]: 0.9 nM | Kd [8]: 3.08 nM | Kd [9]: 3.14 nM

B4: m28H12 (antibody, V domains shown)
VH: QVQLQQSGAELVKPGASVKLSCTASGFNIKDTYMHWVKQRPEQGLEWIGRIDPANGDTDYDPKFQGKATVTADTSSNTAYLQLSSLTSEDTAVYYCTISGPPYYVMDYWGQGTSVTVSS
VL: DIQMTQSPASLAVSLGQRATISCRASQSVSSSSYSYMHWYQQKPGQPPKLLIKYASNLESGVPARFSGRGSGTDFTLNIHPVEEEDTATYYCQHSWEIPYTFGGGTRLEIK
notes: murine monoclonal antibody; also called murine 28H12
binding result [1]: binds | binding result [2]: binds

B7: 40G5c (antibody, V domains shown)
VH: EVQLVQSGAEVKKPGASVKVSCKASGYTFTNYYIHWVRQAPGQGLEWIGWIYPGDGNTKYNEKFKGRATLTADTSTSTAYLELSSLRSEDTAVYYCARDSYSNYYFDYWGQGTLVTVSS
VL: DIVMTQSPDSLAVSLGERATINCKSSQSLLNSRTRKNYLAWYQQKPGQPPKLLIYWASTRESGVPDRFSGSGSGTDFTLTISSLQAEDVAVYYCTQSFILRTFGQGTKVEIK
notes: also called h40G5c
Kd [14]: 12 nM | Kd [15]: 14 nM
